# T1: human MCP-2 (human, UniProt P80075 24-99)
# T1 construct: also called hMCP-2; huMCP-2
# T1 sequence (looked up): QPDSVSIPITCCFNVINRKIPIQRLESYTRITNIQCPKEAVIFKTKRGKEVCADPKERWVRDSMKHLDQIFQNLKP
# B1: Fab fragment of murine 11K2 (Fab, V domains shown)
# VH: EVQLQQSGAELVKAGASVKLSCPASGLNIKDTYMHWVKQRPEQGLEWIGRIDPANGNTKFDPKFQGKATITADTSSNTAYLQLSSLTSEDTAVYYCARGVFGFFDYWGQGTTLTVSS
# VL: DIQMTQSSSSFSVSLGDRVTITCKATEDIYNRLAWYQQKPGSAPRLLISGATSLETGVPSRFSGSGSGKDYTLSITSLQTEDVATYYCQQFWSAPYTFGGGTKLEIK
# notes: also called 11K2 Fab; mu11K2 Fab
# What was measured:
# [1] = target: T1, human MCP-2; assay: KinExA, in solution, Fab
# Experimental: (§1) 1 ml of MCP-1 at a concentration of 10 μg/ml in NaHCO₃ was added to an amount of beads equivalent to 1 ml of the original slurry. The beads were rocked overnight at 4° C. Beads were spun down and washed once with 1M Tris, pH 8.0, then resuspended in 1M Tris pH 8.0 with 1% BSA, 0.02% azide. The beads were rocked at room temperature for one hour then stored at 4° C. in this buffer for the duration of the experiments.
# (§2) The KinExA 3000 measures protein-protein interaction in solution, and is ideally suited for measuring affinities of antibodies to antigens. In the typical experiment, antigen (MCP) is immobilized on a bead, antibody is flowed over a column of these beads at a given concentration, and the antibody that binds to the beads is detected using a fluorescent secondary. Antibody at a fixed concentration is then incubated with different concentrations of antigen in solution and the amount of free antibody is measured by flowing the mixture over the bead column quickly enough that no re-equilibration occurs between solution and solid phase. The amount of antibody remaining free is plotted against the concentration of antigen added and the data are fit to a quadratic equation to determine the affinity of the interaction in solution.
# In these experiments, the only difference to the typical experiment described above is that instead of using intact antibody, a Fab fragment of 11K2 was used. Earlier KimExA experiments using the intact murine 11K2 mAb binding to MCP-1 and MCP-2 gave biphasic curves that the software could not interpret. This may be due to these proteins acting as dimers, so to eliminate the dimer/dimer interaction we generated Fab fragments. The binding of the 11K2 Fab fragments to MCP-1 and MCP-2 produced curves that the KinExA software could fit.
# [2] = target: T1, human MCP-2; assay: KinExA, in solution
# Experimental: (§3) Polymethylmethacrylate beads activated with NHS were coated with 10 μg recombinant human MCP-1 in 1 ml buffer. The beads were packed into a column in the KinExA instrument for each sample. This packed bead column is able to capture free MCP mAb or Fab flowed through the column. The amount of free mAb or Fab in solution was determined using a secondary goat anti-mouse heavy and light chain IgG-Cy5 conjugate.
# (§4) A fixed amount of 11K2 mAb, 1A1 mAb, 11K2 Fab, or 1A1 Fab was incubated with various amounts of human MCP-1, MCP-2 or MCP-3 for three hours. The amount of uncomplexed free antibody remaining in solution was determined by flowing these mixtures over the MCP-1-loaded bead column and labeling with the Cy5 secondary antibody. The fluorescent signal was plotted against the MCP concentration and the affinity was determined using a quadratic curve fit
# [3] = target: T2, human MCP-1 (human, UniProt P13500 24-99); assay: KinExA, in solution
# T2 construct: also called hMCP-1; huMCP-1
# Experimental: as §3, §4
# [4] = target: T2, human MCP-1; assay: KinExA, in solution, Fab; Fab, not intact mAb
# Experimental: as §1
# as §2, with “solution. […]” for “solution.”
binder,measurement,setting,value
B1,Kd,[1],0.43 nM
same,Kd,[2],0.43 nM
same,Kd,[3],0.011 nM
same,Kd,[4],0.011 nM
